Data on four molecules can be found in ChEMBL document CHEMBL2177050, “Understanding the binding of daunorubicin and doxorubicin to NADPH-dependent cytosolic reductases by computational methods” (Eur J Med Chem, 2012).

The Km is the concentration of substrate that gives half-maximal velocity. A word on the kcat: it is the number of substrate molecules converted per active site and unit of time at saturation.

Data set [1] concerns the target T1, Aldo-keto reductase family 1 member A1 (Homo sapiens) (UniProt P14550).
T1 sequence (whole entry): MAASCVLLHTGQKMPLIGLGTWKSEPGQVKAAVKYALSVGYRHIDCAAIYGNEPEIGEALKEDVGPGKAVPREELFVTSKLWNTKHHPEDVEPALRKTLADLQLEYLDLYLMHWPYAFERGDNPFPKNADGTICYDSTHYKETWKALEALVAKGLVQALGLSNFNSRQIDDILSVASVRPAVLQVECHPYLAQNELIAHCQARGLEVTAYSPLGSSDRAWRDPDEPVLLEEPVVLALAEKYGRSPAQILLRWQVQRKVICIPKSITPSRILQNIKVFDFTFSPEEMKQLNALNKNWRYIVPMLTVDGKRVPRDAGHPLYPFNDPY
Kind of data set: Activity of human AKR1A1 expressed in Escherichia coli BL21 assessed per mg protein in presence of 0.2 mM NADPH.

Substrate in data set [2]: COc1cccc2c1C(=O)c1c(O)c3c(c(O)c1C2=O)C[C@@](O)(C(=O)CO)C[C@@H]3O[C@H]1C[C@H](N)[C@H](O)[C@H](C)O1
Kind of data set: Activity of GST-tagged aldo-keto reductase 1A1.

Substrate in data set [3]: COc1cccc2c1C(=O)c1c(O)c3c(c(O)c1C2=O)C[C@@](O)(C(=O)CO)C[C@@H]3O[C@H]1C[C@H](N)[C@H](O)[C@H](C)O1
Kind of data set: (§1) Activity of human recombinant His6-tagged carbonyl reductase 1 expressed in Escherichia coli BL21(DE3) using menadione as substrate by Michaelis-Menten plot analysis.

Substrate in data set [4]: COc1cccc2c1C(=O)c1c(O)c3c(c(O)c1C2=O)C[C@@](O)(C(C)=O)C[C@@H]3O[C@H]1C[C@H](N)[C@H](O)[C@H](C)O1
The data set is described as §1.

Substrate in data set [5]: COc1cccc2c1C(=O)c1c(O)c3c(c(O)c1C2=O)C[C@@](O)(C(=O)CO)C[C@@H]3O[C@H]1C[C@H](N)[C@H](O)[C@H](C)O1
Kind of data set: Activity of His-tagged carbonyl reductase 1.

Substrate in data set [6]: COc1cccc2c1C(=O)c1c(O)c3c(c(O)c1C2=O)C[C@@](O)(C(=O)CO)C[C@@H]3O[C@H]1C[C@H](N)[C@H](O)[C@H](C)O1
Kind of data set: (§2) Activity of human carbonyl reductase 1.

Substrate in data set [7]: COc1cccc2c1C(=O)c1c(O)c3c(c(O)c1C2=O)C[C@@](O)(C(C)=O)C[C@@H]3O[C@H]1C[C@H](N)[C@H](O)[C@H](C)O1
Described as §2.

Regarding `COc1cccc2c1C(=O)c1c(O)c3c(c(O)c1C2=O)C[C@@](O)(C(C)=O)C[C@@H]3O[C@H]1C[C@H](N)[C@H](O)[C@H](C)O1`, the Activity in data set [1] is 120 nmol/min.

Turning to `COc1cccc2c1C(=O)c1c(O)c3c(c(O)c1C2=O)C[C@@](O)(C(=O)CO)C[C@@H]3O[C@H]1C[C@H](N)[C@H](O)[C@H](C)O1`, in data set [1], the Activity came to 11 nmol/min.

B1: Aldo-keto reductase family 1 member A1 (Homo sapiens), P14550 (protein)
chain: T1 sequence (whole entry)
Turning to B1, in data set [2], the Michaelis constant (Km) came out at 247 µM and the turnover number (kcat) was determined as 0.000667 s⁻¹.

B2: Carbonyl reductase [NADPH] 1 (Homo sapiens), P16152 (protein)
chain: MSSGIHVALVTGGNKGIGLAIVRDLCRLFSGDVVLTARDVTRGQAAVQQLQAEGLSPRFHQLDIDDLQSIRALRDFLRKEYGGLDVLVNNAGIAFKVADPTPFHIQAEVTMKTNFFGTRDVCTELLPLIKPQGRVVNVSSIMSVRALKSCSPELQQKFRSETITEEELVGLMNKFVEDTKKGVHQKEGWPSSAYGVTKIGVTVLSRIHARKLSEQRKGDKILLNACCPGWVRTDMAGPKATKSPEEGAETPVYLALLPPDAEGPHGQFVSEKRVEQW
For the molecule B2, the Km in data set [3] is 287 µM; in data set [4] it was 51 µM; in data set [5] it was 167 µM; in data set [6], 90 µM; in data set [7], 108 µM. Further, the kcat in data set [3] turned out to be 0.21 s⁻¹; in data set [4] it was 1.94 s⁻¹; in data set [5], 0.0103 s⁻¹; in data set [7], 1.27 s⁻¹.
